Measurements published in US20100273704A1.

Molecular target: BCL-XL ΔC [GST: P08515]
Assay: fluorescence polarization

Row | Substance | EC50
1 | BID SAHBA | 35.3 nM
2 | BAD SAHBA(S→D) | > 10000 nM
3 | BAD SAHBA(L,D→A) | 333 nM
4 | BAD SAHBA | 40.2 nM
